The values below come from patent US20240002531A1 (ONO PHARMACEUTICAL, published 2024).

Holding throughout (test): peptide ELISA, OD 655 nm
The target in assay [1] is T1, HER2 peptide p603-622 (amino acids 603 to 622 of human HER2) (human).
T1 construct: Synthetic peptide; also called wild-type HER2 peptide
T1 peptide: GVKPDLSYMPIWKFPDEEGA

The target of assay [2] is T2, G603A peptide (HER2 603-622 with G603A) (human).
T2 peptide: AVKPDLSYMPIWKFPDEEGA

For assay [3], the target named is T3, V604A peptide (HER2 603-622 with V604A) (human).
T3 peptide: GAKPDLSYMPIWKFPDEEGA

The target in assay [4] is T4, K605A peptide (HER2 603-622 with K605A) (human).
T4 peptide: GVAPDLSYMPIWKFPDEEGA

In assay [5] the target is T5, P606A peptide (HER2 603-622 with P606A) (human).
T5 peptide: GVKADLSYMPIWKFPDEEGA

For assay [6], the target named is T6, D607A peptide (HER2 603-622 with D607A) (human).
T6 peptide: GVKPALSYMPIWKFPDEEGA

Assay [7] has as its target T7, L608A peptide (HER2 603-622 with L608A) (human).
T7 peptide: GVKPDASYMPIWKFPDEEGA

Assay [8] addresses T8, S609A peptide (HER2 603-622 with S609A) (human).
T8 peptide: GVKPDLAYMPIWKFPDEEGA

Assay [9] deals with T9, Y610A peptide (HER2 603-622 with Y610A) (human).
T9 peptide: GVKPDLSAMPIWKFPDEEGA

Assay [10] addresses T10, M611A peptide (HER2 603-622 with M611A) (human).
T10 peptide: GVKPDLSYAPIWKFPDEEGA

Assay [11] addresses T11, P612A peptide (HER2 603-622 with P612A) (human).
T11 peptide: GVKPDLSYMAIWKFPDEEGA

Assay [12] deals with T12, I613A peptide (HER2 603-622 with I613A) (human).
T12 construct: also called 1613A
T12 peptide: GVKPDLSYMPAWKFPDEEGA

The target in assay [13] is T13, W614A peptide (HER2 603-622 with W614A) (human).
T13 peptide: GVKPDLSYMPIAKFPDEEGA

Assay [14] concerns the target T14, K615A peptide (HER2 603-622 with K615A) (human).
T14 peptide: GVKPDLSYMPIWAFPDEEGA

Assay [15] addresses T15, F616A peptide (HER2 603-622 with F616A) (human).
T15 peptide: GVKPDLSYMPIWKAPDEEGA

The target of assay [16] is T16, P617A peptide (HER2 603-622 with P617A) (human).
T16 peptide: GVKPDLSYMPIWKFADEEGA

The target in assay [17] is T17, D618A peptide (HER2 603-622 with D618A) (human).
T17 peptide: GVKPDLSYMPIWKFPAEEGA

Assay [18] has as its target T18, E619A peptide (HER2 603-622 with E619A) (human).
T18 peptide: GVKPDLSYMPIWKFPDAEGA

The target in assay [19] is T19, E620A peptide (HER2 603-622 with E620A) (human).
T19 peptide: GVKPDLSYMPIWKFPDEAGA

Assay [20] addresses T20, G621A peptide (HER2 603-622 with G621A) (human).
T20 peptide: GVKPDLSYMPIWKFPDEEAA

Assay [21] deals with T21, HER2_604-622C peptide (NH2-VKPDLSYMPIWKFPDEEGAC-COOH) (human).
T21 construct: KLH was added for immunisation, the peptide itself was coated in the screening ELISA
T21 peptide: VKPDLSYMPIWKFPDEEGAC

B1: H2Mab-284 antibody (antibody, mouse IgG1, kappa, V domains shown)
VH: QVTLKESGPGILQPSQTLSLTCSFSGFSLSTSGVGVGWIRQPSGKGLEWLAHIWWDDDKNYNPALKSRLTISKDTSTNQGFLKIASVDTADTATYFCARIEGQKGFAYWGQGTLVTVSA
VL: DIVMSQSPSSLAVSVGEKVTMSCKSSQSLLYSRNQKNYLAWYQQKPGQSPKLLIYWASTRESGVPDRFTGSGSGTDFTLTISSVKAEDLAVYYCQQYYSSPYTFGGGTKLEIKR
B1: the binding result in [1], in [2], in assay [3], in assay [4], in [5] and in assay [6] was “binds” throughout. For the same molecule, the binding result in assay [7], in assay [8], in assay [9], in assay [10], in assay [11] and in assay [12] was “binds” in each case. In addition, the binding result in assay [13] was “binds”; in assay [14] it was “no binding (tested: 10 ug/ml)”; in [15], “no binding (tested: 10 ug/ml)”; in assay [16] it was “binds”; in assay [17], “binds”; in assay [18], “binds”. The binding result in assay [19], in [20] and in assay [21] was “binds” in each case.

B2: H2Mab-285 antibody (antibody, mouse IgG3, V domains shown)
VH: EVQLVESGGGLVQPGGSLKLSCAASGFTFSNYGIFWVRQTPDKRLELVATVKSNGGSTYYPDSVKGRFTISRDNAKKTLYLQMSSLKSEDTAMYYCAREGGDYWGQGTSVTVSS
VL: DIVMTQSHKFMSTSVGDRVSITCKASQDVGTAVAWYQQKPGQSPKLLIYWTSTRHTGVPDRFTGSGSGTDFTLTIRNVQSEDLADYFCQQYNRNPLTFGAGTRLELKR
In the case of B2, the binding result in [1], in assay [2], in [3], in [4], in [5] and in [6] was “binds” each time. The binding result in assay [7], in assay [8], in assay [9], in [10], in [11] and in assay [12] was “binds” in each case. Besides, the binding result in assay [13], in [14], in assay [15], in [16], in assay [17] and in assay [18] was “binds” each time. In addition, the binding result in assay [19], in [20] and in [21] was “binds” in each case.

B3: H2Mab-283 antibody (antibody, mouse IgG1, kappa, V domains shown)
VH: EVQLVESGGGLVQPGGSLKLSCAASGFTFSSYGMSWVRQTPDKRLELVATINSNGGSTFYPDSVKGRFTISRDNAKNTLYLHMSSLKSEDTAIYYCVSPGSWFPYWGRGTLVTVSA
VL: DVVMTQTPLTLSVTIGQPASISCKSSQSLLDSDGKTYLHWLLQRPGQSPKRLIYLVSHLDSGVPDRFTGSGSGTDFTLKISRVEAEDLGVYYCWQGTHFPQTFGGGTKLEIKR
Regarding B3, the binding result in assay [1], in assay [2], in assay [3], in assay [4], in [5] and in [6] was “binds” in each case. The binding result in assay [7], in assay [8], in assay [9], in assay [10], in [11] and in assay [12] was “binds” in each case. Also, the binding result in [13] is “no binding (tested: 10 ug/ml)”; in assay [14], “binds”; in [15], “binds”; in assay [16], “binds”; in [17] it was “binds”; in [18] it was “binds”. The binding result in assay [19], in [20] and in assay [21] was “binds” each time.
